Results: patent US20230312721A1 (published 2023)

T1: 4Ig human B7-H3 (human, UniProt Q5ZPR3 29-466, limits assumed)
T1 construct: Soluble analyte in SPR; also called 4Ig-B7H3; 4Ig B7H3
T1 sequence: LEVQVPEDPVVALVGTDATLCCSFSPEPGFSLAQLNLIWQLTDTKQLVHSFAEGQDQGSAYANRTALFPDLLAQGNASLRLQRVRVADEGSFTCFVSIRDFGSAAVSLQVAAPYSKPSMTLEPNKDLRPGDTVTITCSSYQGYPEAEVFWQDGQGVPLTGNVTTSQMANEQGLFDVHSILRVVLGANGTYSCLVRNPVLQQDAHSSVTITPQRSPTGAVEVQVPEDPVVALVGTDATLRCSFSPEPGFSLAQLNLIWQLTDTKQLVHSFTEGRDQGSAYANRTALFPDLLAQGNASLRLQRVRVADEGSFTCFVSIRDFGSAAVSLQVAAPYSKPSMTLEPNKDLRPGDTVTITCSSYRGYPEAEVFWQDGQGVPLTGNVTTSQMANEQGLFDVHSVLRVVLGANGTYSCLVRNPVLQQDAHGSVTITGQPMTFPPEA

B1: L3H5 (antibody, human IgG1, kappa, V domains shown)
VH: QVQLVQSGAEVKKPGASVKVSCKASGYTFTNYDINWVRQATGQGLEWMGWIFPGDGSTQYNEKFQGRVTMTTNTSISTAYMELSSLRSEDTAVYYCARQTTATWFAYWGQGTLVTVSS
VL: EIVMTQSPDFQSVTPKEKVTLTCRASQSISDYLHWYQQKPDQSPKLLIKYASQSISGVPSRFSGSGSGSDFTLTINSLEAEDAGVYYCQNGHSFPLTFGQGTKLEIKR
notes: Humanized IgG1, HEK293; chains tied by the L/H names; also called YB8 L3 + YB8 H5
B2: L3H6 (antibody, human IgG1, kappa, V domains shown)
VH: QVQLQQSGAEVKKPGASVKLSCKASGYTFTNYDINWVRQATGQGLEWIGWIFPGDGSTQYAQKFQGRATLTTNTSISTAYMELSSLRSEDTAVYFCARQTTATWFAYWGQGTLVTVSS
VL: EIVMTQSPDFQSVTPKEKVTLTCRASQSISDYLHWYQQKPDQSPKLLIKYASQSISGVPSRFSGSGSGSDFTLTINSLEAEDAGVYYCQNGHSFPLTFGQGTKLEIKR
notes: Humanized IgG1, HEK293; chains tied by the L/H names; also called YB8 L3 + YB8 H6
B3: L4H1 (antibody, human IgG1, kappa, V domains shown)
VH: QVQLVQSGAEVKKPGASVKVSCKASGYTFTNYDINWVRQATGQGLEWIGWIFPGDGSTQYNEKFQGRVTLTTNTSISTAYMELSSLRSEDTAVYYCARQTTATWFAYWGQGTLVTVSS
VL: EIVMTQSPDFQSVTPKEKVTLTCRASQSISDYLHWYQQKPDQSPKLLIKYASQSISGIPSRFSGSGSGTDFTLTINSVEAEDAGVYYCQNGHSFPLTFGQGTKLEIKR
notes: Humanized IgG1, HEK293; chains tied by the L/H names; also called YB8 L4 + YB8 H1
B4: L4H2 (antibody, human IgG1, kappa, V domains shown)
VH: QVQLQQSGAEVKKPGASVKVSCKASGYTFTNYDINWVRQATGQGLEWIGWIFPGDGSTQYNEKFKGRATLTRNTSISTAYMELSSLRSEDTAVYYCARQTTATWFAYWGQGTLVTVSS
VL: EIVMTQSPDFQSVTPKEKVTLTCRASQSISDYLHWYQQKPDQSPKLLIKYASQSISGIPSRFSGSGSGTDFTLTINSVEAEDAGVYYCQNGHSFPLTFGQGTKLEIKR
notes: Humanized IgG1, HEK293; chains tied by the L/H names; also called YB8 L4 + YB8 H2
B5: L4H3 (antibody, human IgG1, kappa, V domains shown)
VH: QVQLVQSGAEVKKPGASVKVSCKASGYTFTNYDINWVRQATGQGLEWMGWIFPGDGSTQYNEKFKGRVTLTRNTSISTAYMELSSLRSEDTAVYFCARQTTATWFAYWGQGTLVTVSS
VL: EIVMTQSPDFQSVTPKEKVTLTCRASQSISDYLHWYQQKPDQSPKLLIKYASQSISGIPSRFSGSGSGTDFTLTINSVEAEDAGVYYCQNGHSFPLTFGQGTKLEIKR
notes: Humanized IgG1, HEK293; chains tied by the L/H names; also called YB8 L4 + YB8 H3
B6: L4H4 (antibody, human IgG1, kappa, V domains shown)
VH: QVQLVQSGAEVKKPGASVKVSCKASGYTFTNYDINWVRQATGQGLEWIGWIFPGDGSTQYNEKFQGRVTMTTNTSISTAYMELSSLRSEDTAVYFCARQTTATWFAYWGQGTLVTVSS
VL: EIVMTQSPDFQSVTPKEKVTLTCRASQSISDYLHWYQQKPDQSPKLLIKYASQSISGIPSRFSGSGSGTDFTLTINSVEAEDAGVYYCQNGHSFPLTFGQGTKLEIKR
notes: Humanized IgG1, HEK293; chains tied by the L/H names; also called YB8 L4 + YB8 H4
B7: L4H5 (antibody, human IgG1, kappa, V domains shown)
VH: QVQLVQSGAEVKKPGASVKVSCKASGYTFTNYDINWVRQATGQGLEWMGWIFPGDGSTQYNEKFQGRVTMTTNTSISTAYMELSSLRSEDTAVYYCARQTTATWFAYWGQGTLVTVSS
VL: EIVMTQSPDFQSVTPKEKVTLTCRASQSISDYLHWYQQKPDQSPKLLIKYASQSISGIPSRFSGSGSGTDFTLTINSVEAEDAGVYYCQNGHSFPLTFGQGTKLEIKR
notes: Humanized IgG1, HEK293; chains tied by the L/H names; also called YB8 L4 + YB8 H5
B8: L4H6 (antibody, human IgG1, kappa, V domains shown)
VH: QVQLQQSGAEVKKPGASVKLSCKASGYTFTNYDINWVRQATGQGLEWIGWIFPGDGSTQYAQKFQGRATLTTNTSISTAYMELSSLRSEDTAVYFCARQTTATWFAYWGQGTLVTVSS
VL: EIVMTQSPDFQSVTPKEKVTLTCRASQSISDYLHWYQQKPDQSPKLLIKYASQSISGIPSRFSGSGSGTDFTLTINSVEAEDAGVYYCQNGHSFPLTFGQGTKLEIKR
notes: Humanized IgG1, HEK293; chains tied by the L/H names; also called YB8 L4 + YB8 H6

What follows are binders tested against T1, 4Ig human B7-H3 (assay: SPR, Carterra LSA; antibody captured on anti-human Fc lawn, 4Ig human B7-H3 as analyte).
Method: Chimeric and humanized antibodies were generated using CDR grafting methods using closely homologous human germline sequences. Six different humanized VH and four humanized VL sequences were combined to generate 24 different humanized IgG1 antibodies. The antibodies were expressed in HEK293 cells and purified using Protein A resin. Antibodies were buffer exchanged into PBS and quantified by OD280 and titer was calculated. Sample purity and aggregation status was determined by analytical Size Exclusion Chromatography (SEC-HPLC), which separates molecules based on molecular mass and hydrodynamic volume. Area % of each peak is calculated based on total area of the peaks. Peak symmetry is calculated to determine the peak fronting (<1) or tailing (>1). A column of 300A pore size was used for detection at 280 nm and PBS as the running buffer. Surface plasmon resonance studies to assess binding affinities were carried out on a Carterra LSA instrument. An anti-human Fc antibody “lawn” was prepared on a HC30M chip by amine coupling. The chip was activated with equal volume of 100 mM MES pH 5.5, 100 mM S-NHS and 400 mM EDC. The anti-human IgG Fc antibody was immobilized. The chip was deactivated with 1 M ethanolamine pH 8.5. Antibodies were diluted and printed onto the anti-human Fc lawn. An 8-point series of 4Ig human B7-H3 was prepared.
The characterization data, including expression titers (mg of purified protein per L of culture), purity (% monomer peak by analytical SEC-HPLC) and affinity measurement by SPR (ka, kd and KD) are summarized in Table 1 and FIG. 1-4.
With B1 the Kd was 9.2 nM, the koff was 0.00035 s⁻¹ and the kon was 38000 M⁻¹ s⁻¹.
In the case of B2, the Kd is reported as 20 nM, the koff is reported as 0.0005 s⁻¹ and the kon is reported as 25000 M⁻¹ s⁻¹.
With B3 the Kd was 23 nM, the koff was 0.00055 s⁻¹ and the kon was 24000 M⁻¹ s⁻¹.
Binder B4 has a Kd of 11 nM, a koff of 0.00039 s⁻¹ and a kon of 36000 M⁻¹ s⁻¹.
For B5, the Kd was 13 nM, the koff was 0.00039 s⁻¹ and the kon was 31000 M⁻¹ s⁻¹.
Work on B6 yielded a Kd of 11 nM, a koff of 0.00036 s⁻¹ and a kon of 34000 M⁻¹ s⁻¹.
B7 showed a Kd of 9.3 nM, a koff of 0.0004 s⁻¹ and a kon of 43000 M⁻¹ s⁻¹.
With B8 the Kd was 9.6 nM, the koff was 0.00042 s⁻¹ and the kon was 43000 M⁻¹ s⁻¹.
